The nature of this data set: label from the status in PepcDB records.
As for “MNIVIAGAGEVGTHLAKMLSQEEQNIVLIDPNPKRLELAAMRSELLPQVGNPLSPSDLLQANVKYADLFISVMPEEADNILACALASRLGAGKTLARINNNEFLKPDMAQYFRDMGVHTMIYPELLAAREIVSTIKNPWARQYVELFDGALVLVGVKVREGAHIVGKYLHELTRTGNKIFHIVAIKRDLETIIPKGGTQVLHGDIVFFATAQNHLDEVRKLAGKDNPPVHKVVIMGGSRIAIRSIEMIPRNIQVAIIEKDKEKSMRISAIAPTNVQVYNGDGRDSDILIEAGLDQTDVFIALTENSETNVLACLGAKRFGVFKTIAKEENIDYISLADRLDIGTLINKKLLAAGSIYRIFLGEDTSTVKCLTLANADVAELVAHRGAPVTKRPVKDLNIPEGITFGGMVRNGVPQMIHGDTVIEPYDHVVVFCLNTPLNILKDFFG”, the protein production entry is listed as “failed”. Consider “MGKTPEEVDEVNKAAFSTSEASATIAAMNQLHKPVDTVVAHISPEAPAAKVMAEGDVITQVAGAKATGPSQVRDAVRAKKPGETISIGFLRDGKQLTREVTLGTHPEDDKVAFLGVSMTARPLEHHHHHH”, for which the protein production result is given as “not failed”. “MGLWAAVHAERRGIATIIADAGRLGGGASGGLLGALMPHMPDRWSEKKQFQFDALVSLEAEIAALEAATGLSAGYNRSGRLIPLPKPHLNRIARGHSEDAERHWQAGERRFHWHVVDRPDADGWVDASAGASGFVHDTLAARVAPRSLMSALIASLRQAKFVRILEYAAVAGLDPDRGTADIGGETIAFSRCILAAGHQSFPLLQELTLGPKKPLGQPVKGQATLLKAAIDPALPTIFLDGLYIVAHEGGHVAIGSTSENRFNDPFSTDAQLDALIETARAIVPILRDAPVVERWAGLRPKAIDRDPMIGCHPDHPRLIALTGGFKVSFGLAHRLAEAAVCIADDIDCEYLLPESFAISSHIAAASR”: the protein production entry is “failed”. In the case of “MSLTNHHPSSTGPQHPYRAGWIHFTNVAPILDSLELPPGVTAITGVPTQMNAALLSGEVDIANVSAVEFIRHADTLAALPDFSVAVLGPVYSVNLFHTCPLPELRRVALTSQSAMSVALLEVLLRQKGLSPVLERAEGTAESLLAAGYDGVLRIGDDALREWYGVVGPLTPERTMTSLPHTGRGITVTDLAQEWFDLTGHPFTFAVWAYRKDNPPPAALLQAMREARRRGIGHLAEVSQRHAEKLGLPERVVQHYLWNFRYHLEAPDRLGLREFADLAVPGHAELTFGAREEAEGHHHHHH”, the protein production entry is listed as “not failed”.

As to “MDREAFVQTLTACRLCPRLVAWREEVVGRKRAFRGEPYWARPVPGFGDPEARILLFGLAPGAHGSNRTGRPFTGDASGAFLYPLLHEAGLSSKPESLPGDDLRLYGVYLTAAVRCAPPKNKPTPEELRACARWTEVELGLLPEVRVYVALGRIALEALLAHFGLRKSAHPFRHGAHYPLPGGRHLLASYHVSRQNTQTGRLTREMFLEVLMEAKRLAGL”, the protein production entry is recorded as “not failed”. For “MSKLTLGSYPHMLGFEQLERLLERSAKSGNEGYPPYNIEQTSETSYRITLAVAGFAEADLSITVEDRQLVIRGRQSDDSEGRVFLHRGIAARQFQRMFVLAEGVEVGEAVMENGLLHVDLSRAVPQSVVQTINIRKG” the value was “failed”; for “MTQLQISLLLTATISLLHLVVATPYEAYPIGKQYPPVARVNESFTFQISNDTYKSSVDKTAQITYNCFDLPSWLSFDSSSRTFSGEPSSDLLSDANTTLYFNVILEGTDSADSTSLNNTYQFVVTNRPSISLSSDFNLLALLKNYGYTNGKNALKLDPNEVFNVTFDRSMFTNEESIVSYYGRSQLYNAPLPNWLFFDSGELKFTGTAPVINSAIAPETSYSFVIIATDIEGFSAVEVEFELVIGAHQLTTSIQNSLIINVTDTGNVSYDLPLNYVYLDDDPISSDKLGSINLLDAPDWVALDNATISGSVPDELLGKNSNPANFSVSIYDTYGDVIYFNFEVVSTTDLFAISSLPNINATRGEWFSYYFLPSQFTDYVNTNVSLEFTNSSQDHDWVKFQSSNLTLAGEVPKNFDKLSLGLKANQGSQSQELYFNIIGMDSKITHSNHSANATSTRSSHHSTSTSSYTSSTYTAKISSTSAAATSSAPAALPAANKTSSHNKKAVAIACGVAIPLGVILVALICFLIFWRRRRENPDDENLPHAISGPDLNNPANKPNQENATPLNNPFDDDASSYDDTSIARRLAALNTLKLDNHSATESDISSVDEKRDSLSGMNTYNDQFQSQSKEELLAKPPVQPPESPFFDPQNRSSSVYMDSEPAVNKSWRYTGNLSPVSDIVRDSYGSQKTVDTEKLFDLEAPEKEKRTSRDVTMSSLDPWNSNISPSPVRKSVTPSPYNVTKHRNRHLQNIQDSQSGKNGITPTTMSTSSSDDFVPVKDGENFCWVHSMEPDRRPSKKRLVDFSNKSNVNVGQVKDIHGRIPEML”, “failed”; for “MRKVRPEELPALLEEGVLVVDVRPADRRSTPLPFAAEWVPLEKIQKGEHGLPRRPLLLVCEKGLLSQVAALYLEAEGYEAMSLEGGLQALTQGK”, “not failed”. For “MGYEGIIVVDVRDAEAYKECHIPTAISIPGNKINEDTTKRLSKEKVIITYCWGPACNGATKAAAKFAQLGFRVKELIGGIEYWRKENGEVEGTLGAKADLFWNMKKESLEHHHHHH” the value was “failed”; for “PKATAQMEGRLQEFLTAYAPGARLALADGVLGFIHHQIVELARDCLAKSGENLVTSRYFLEMQEKLERLLQDAHERSDSEEVSFIVQLVRKLLIIISRPAR”, “not failed”; for “LNIAQKGREGRKIGTAFVMGDVEEVMSRSSQLVINPYHGHKEADRDIKNPENWESVMEFAQIDGVFVLDENGIIIACGRYIEASAKDLVSKIKRGLGGRHIACASITKETKAIAVVVSESGGDITVYKDGVEVMHIPSLLF”, “failed”.

“MKFSVLMSLYIKENPQFLRECFESLVAQTRQADEIVLVFDGVVTPDLEFVVTEFETKLPLKLVKLPQNRGLGKALNEGLLHCDYDWVFRMDTDDICVPDRFEKQVAFIEQHPESIIFGGQIAEFGKNVNDIVAYRNVPTSAQEIIKFTQKRCPFNHMTVAYQKSAVINCGGYEDLQEDYYLWIKLVAQGLYMANLPDILVYARVGNGMVLEHHHHHH”: the protein production entry was “not failed”. For the sequence “MKGDRTLSCMIKTDRGEICIDPAEPILHIIGKKYAIFIVSVLGNDNTRKNFNDLMRAVPGISSTMLSARLHEMNECGLIERHEGDIVTYELTERGREIRKRMLPLIEYLADAD”, the protein production result is reported as “failed”. Consider “MSIEATLLARCESKCELCSSESPLTAYAVPPHGNVTVDTAIMVCDKCHSEIEEPKDINHWRCLNESMWSQVPAVQVTAWRQLTRLNSESWAQDALDMMYMEEEQKNWAMTGMSADDKTVDCNGTELKKGDDVTVIKDLPVKGTNQVIKQGTVIRGISLGDDPKLISGKANGGQSMYVIAEYCRKKLEHHHHHH”, for which the protein production entry is on record as “failed”. With “MTYELSTDREFDLIAIGRACIDLNAVEYNRPMEETMTFSKYVGGSPANIVIGSSKLGLKAGFIGKIADDQHGRFIESYMRGVGVDTSNLVVDQEGHKTGLAFTEIKSPEECSILMYRQDVADLYLSPEEVNEAYIRRSKLLLVSGTALSKSPSREAVLKAIRLAKRNDVKVVFELDYRPYSWETPEETAVYYSLVAEQSDIVIGTREEFDVLENRTEKGDNDETIRYLFKHSPELIVIKHGVEGSFAYTKAGEAYRGYAYKTKVLKTFGAGDSYASAFLYALISGKGIETALKYGSASASIVVSKHSSSDAMPSVEEIEALIEKDETITIA”, the protein production entry was “not failed”.

On to “MEDLVTAPTPLDKRWLTEAVRLREEHAGPLEDQEANRHARQLGGDLATRIETRALFLAERDDMTGALRHWKQGARLALLALLLMAVLSGTGLGLAALGDGQRPVNVFWALGSLLGLNLLMLLGWGMGFALSGEHGAGLGRLWLWLSERFARDAKAAHLAPALLVLLQRQRLNRWLLGLLVHGLWLLAMLTALGMLLVLLATRRYGFVWETTLLAADPFIHLTQALGALPSLLGFAVPDEAMIRASGDSLPALDVARQAWASWLLGVVLVYGLLPRLLLAGLCLWRWRQGRERLTLDLGLPGYAQLREALMPRSERIGVQDAAPQALPQFAAGQLESGSSGALLVGLELDDQRPWPPALPKSVTDAGVLDSRESRNRLLEQLSRFPPARLAIACDPRRSPDRGSLALLAELARNAGATRIWLLQAAPGQPLDAERLGDWHEALDRLGLQHADTSPLTWLEHGHD”, for which the protein production result is given as “failed”. On to “MARGLNRVFLIGALATRPDMRYTPAGLAILDLTLAGQDLLLSDNGGEREVSWYHRVRLLGRQAEMWGDLLDQGQLVFVEGRLEYRQWEREGERRSELQIRADFLDPLDDRGKERAEDSRGQPRLRAALNQVFLMGNLTRDPELRYTPQGTAVARLGLAVNERRQGAEERTHFVEVQAWRDLAEWAAELRKGDGLFVIGRLVNDSWTSSSGERRFQTRVEALRLERPTRGPAQAGGSRSREVQTGGVDIDEGLEDFPPEEELPF”, for which the protein production result is reported as “not failed”. Regarding “MLDQKPKVSVIIPTYNRAHLIPRAIKSVLNQTYLDIEIIIVDDSSTDNTEEIVKDFKDRRLKYIRHNINKGASAARNTGIRESRGKYIAFQDSDDEWFSNKLEKQIEAFADAPPEVGIVYSGFYRIEANRKLYLPSDQLSLKEGNIHNELLKGNFVGTPTVLMKKECFRNQRYFNESLPALEDWELWIELSKYYTFRYIKKPLLCSYSTPNSINLNENNMLKAHEIILLTHLDDFSKNKKNLSEHYYDIGTGLCSIGNFNNGKNYLIKSLKAYCLNFKTISVLFILLFGHNIYYKFRDLHRKIGHRT”, the protein production entry was “failed”.

As for “KCETKEKGAITAKELYTMMTDKNISLIIMDARRMQDYQDSCILHSLSVPEEAISPGVTASWIEAHLPDDSKDTWKKRGNVEYVVLLDWFSSAKDLQIGTTLRSLKDALFKWESKTVLRNEPLVLEGGYENWLLCYPQYTTNAKV”, the protein production result was “not failed”.

As to “IRSIWENNGFGLMSSKTMTDFDYWISDFEKIGASQKEAEQLIVKAIEIAIDANARNYNYINAILKDWEQRGFKSVEEREA”, the protein production result is reported as “not failed”. In the case of “MKKTLILGATPETNRYAYLAAERLKSHGHEFIPVGRKKGEVLGKTIINERPVIEGVDTVTLYINPQNQLSEYNYILSLKPKRVIFNPGTENEELEEILSENGIEPVIGCTLVMLSAGTF”, the protein production result is on record as “not failed”. For “MKQEEEPWIDHLKQRVNEYEKPLPENDWNHFQTEFFTPYLHKRRRMKTMRIAAVFFLIFIPFATTFYFLQTEKHEAASPVVSLPACQPRSITGSPSIMPENKLLQDRTKSKTASLTRPPIQTSIHTDTANNIETECMPPVQDTIRDTESVHKRPSGHKHFALPYKRSGYTLALAISAGNNGASTGFINKTFSRGDIGSSHKDEIMYWSDFKDYLQEYPSDFPDAQAYEALLQIANDNTGRPMTEYTHYNLPVSIELSLRKSISRHWGVSAGLQYTYLSSESSIGEDSKWVKRQKLHYIGLSVKLDRRLYTTRTFSFYATGGGTIDKSVSGKLEQDFIVQKEKIYSSTENLKIKPFQFSIHAALGIQYNINPTLGAFIEPGTVFYFKDGSFKNTIRDKHPLHFNLQLGVRWNY”, the protein production result is on record as “failed”. For the sequence “MELAVGNLSEGNASCPEPPAPEPGPLFGIGVENFVTLVVFGLIFALGVLGNSLVITVLARSKPGKPRSTTNLFILNLSIADLAYLLFCIPFQATVYALPTWVLGAFICKFIHYFFTVSMLVSIFTLAAMSVDRYVAIVHSRRSSSLRVSRNALLGVGCIWALSIAMASPVAYHQGLFHPRASNQTFCWEQWPDPRHKKAYVVCTFVFGYLLPLLLICFCYAKVLNHLHKKLKNMSKKSEASKKKTAQTVLVVVVVFGISWLPHHIIHLWAEFGVFPLTPASFLFRITAHCLAYSNSSVNPIIYAFLSENFRKAYKQVFKCHIRKDSHLSDTKENKSRIDTPPSTNCTHV”, the protein production entry is reported as “failed”. With “MTGTPCPDFTLPGTAGADFQLSSSRKPLVIYFYPKDNTPGCTNESMAFRDLHPEFAALGAEIVGISRDSLKSHQNFKAKLELPFELLSDSEETACSLFGVIKMKNMYGKQVRGIERSTFVIDASGKVSREWRGVKVPGHAEEVLAYVKTLK”, the protein production result is “failed”.
